Data on six molecules can be found in patent US20220204580A1 (AstraZeneca / MedImmune, published 2022).

Assay [1] has as its target T1, human calcitonin receptor (human, UniProt P30988 25-474).
T1 sequence (looked up): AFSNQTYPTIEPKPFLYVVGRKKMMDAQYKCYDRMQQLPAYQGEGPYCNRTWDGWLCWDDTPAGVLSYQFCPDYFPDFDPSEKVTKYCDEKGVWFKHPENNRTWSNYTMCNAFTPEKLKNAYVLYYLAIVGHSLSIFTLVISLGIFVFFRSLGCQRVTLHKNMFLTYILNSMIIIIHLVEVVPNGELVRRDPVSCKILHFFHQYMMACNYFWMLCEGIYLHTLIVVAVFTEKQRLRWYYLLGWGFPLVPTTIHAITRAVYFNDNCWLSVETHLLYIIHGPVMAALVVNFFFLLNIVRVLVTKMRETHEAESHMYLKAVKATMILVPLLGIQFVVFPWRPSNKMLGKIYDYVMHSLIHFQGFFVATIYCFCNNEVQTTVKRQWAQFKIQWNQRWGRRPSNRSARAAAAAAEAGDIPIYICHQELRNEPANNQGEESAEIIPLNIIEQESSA
Briefly: cell-based or functional assay.

Assay [2] concerns the target T2, human amylin receptor (calcitonin receptor co-expressed with receptor activity modifying protein, RAMP3) (human, UniProt P30988 25-474; O60896 24-148).
T2 sequence (looked up) 1: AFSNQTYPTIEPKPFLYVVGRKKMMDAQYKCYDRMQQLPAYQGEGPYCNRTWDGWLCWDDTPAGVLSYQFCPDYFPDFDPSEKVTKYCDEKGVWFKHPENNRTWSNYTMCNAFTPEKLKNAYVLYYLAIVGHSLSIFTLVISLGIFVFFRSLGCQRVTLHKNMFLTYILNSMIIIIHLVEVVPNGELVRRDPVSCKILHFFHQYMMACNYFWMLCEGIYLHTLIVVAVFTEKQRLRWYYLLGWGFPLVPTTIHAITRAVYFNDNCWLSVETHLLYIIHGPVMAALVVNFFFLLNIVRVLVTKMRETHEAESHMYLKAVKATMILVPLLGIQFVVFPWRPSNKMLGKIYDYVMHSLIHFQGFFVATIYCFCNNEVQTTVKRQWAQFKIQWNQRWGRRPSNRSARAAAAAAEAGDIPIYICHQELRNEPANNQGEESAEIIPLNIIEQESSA
T2 sequence (looked up) 2: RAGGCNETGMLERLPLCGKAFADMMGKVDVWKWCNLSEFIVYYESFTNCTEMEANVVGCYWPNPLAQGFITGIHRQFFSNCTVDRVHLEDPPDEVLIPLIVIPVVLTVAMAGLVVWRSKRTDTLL
As to the kind of experiment: cell-based or functional assay.

Numbered stars: 1 amine (or outer) side, 2 acyl side, 3 side chain; on linkers, the order of the positions; unused ones are H or OH. Bridge positions count the residues as written; N and C are the ends. Square brackets hold non-standard residues; d marks the D form. Side chains are listed from the residue outwards. Ends that are not written are not given here. * marks the point of attachment. C18 diacid = O=C(O)CCCCCCCCCCCCCCCCC(=O)*; γGlu = O=C(O)[C@H](CCC(=O)[*:2])N[*:1]; Aib = CC(C)(N)C(=O)O

B1: Peptide 84 (SEQ ID NO: 84) (peptide)
peptide: K([γGlu-C18 diacid])KCNTATCATQRLANFLVHSS[Aib]NFGPILPPTNVG[Aib]NTY-NH2
modifications: disulfide 3-8; N-terminus assumed
SMILES: CC[C@H](C)[C@H](NC(=O)[C@@H]1CCCN1C(=O)CNC(=O)[C@H](Cc1ccccc1)NC(=O)[C@H](CC(N)=O)NC(=O)C(C)(C)NC(=O)[C@H](CO)NC(=O)[C@H](CO)NC(=O)[C@H](Cc1c[nH]cn1)NC(=O)[C@@H](NC(=O)[C@H](CC(C)C)NC(=O)[C@H](Cc1ccccc1)NC(=O)[C@H](CC(N)=O)NC(=O)[C@H](C)NC(=O)[C@H](CC(C)C)NC(=O)[C@H](CCCNC(=N)N)NC(=O)[C@H](CCC(N)=O)NC(=O)[C@@H](NC(=O)[C@H](C)NC(=O)[C@@H]1CSSC[C@H](NC(=O)[C@H](CCCCN)NC(=O)[C@@H](N)CCCCNC(=O)CC[C@H](NC(=O)CCCCCCCCCCCCCCCCC(=O)O)C(=O)O)C(=O)N[C@@H](CC(N)=O)C(=O)N[C@@H]([C@@H](C)O)C(=O)N[C@@H](C)C(=O)N[C@@H]([C@@H](C)O)C(=O)N1)[C@@H](C)O)C(C)C)C(=O)N[C@@H](CC(C)C)C(=O)N1CCC[C@H]1C(=O)N1CCC[C@H]1C(=O)N[C@H](C(=O)N[C@@H](CC(N)=O)C(=O)N[C@H](C(=O)NCC(=O)NC(C)(C)C(=O)N[C@@H](CC(N)=O)C(=O)N[C@H](C(=O)N[C@@H](Cc1ccc(O)cc1)C(N)=O)[C@@H](C)O)C(C)C)[C@@H](C)O
With B1, the “EC50 (cAMP production)” value in assay [1] turned out to be 0.401 nM. In assay [2], the “EC50 (cAMP production)” value worked out at 0.118 nM and the “Ratio (EC50 hCTR / EC50 hAMYR3)” value turned out to be 3.

B2: Peptide 85 (SEQ ID NO: 85) (peptide)
peptide: K([γGlu-C18 diacid])KCNTATCATQRLANFLVHSS[Aib]NFGPILPPTNVGSNT[Aib]-NH2
modifications: disulfide 3-8; N-terminus assumed
SMILES: CC[C@H](C)[C@H](NC(=O)[C@@H]1CCCN1C(=O)CNC(=O)[C@H](Cc1ccccc1)NC(=O)[C@H](CC(N)=O)NC(=O)C(C)(C)NC(=O)[C@H](CO)NC(=O)[C@H](CO)NC(=O)[C@H](Cc1c[nH]cn1)NC(=O)[C@@H](NC(=O)[C@H](CC(C)C)NC(=O)[C@H](Cc1ccccc1)NC(=O)[C@H](CC(N)=O)NC(=O)[C@H](C)NC(=O)[C@H](CC(C)C)NC(=O)[C@H](CCCNC(=N)N)NC(=O)[C@H](CCC(N)=O)NC(=O)[C@@H](NC(=O)[C@H](C)NC(=O)[C@@H]1CSSC[C@H](NC(=O)[C@H](CCCCN)NC(=O)[C@@H](N)CCCCNC(=O)CC[C@H](NC(=O)CCCCCCCCCCCCCCCCC(=O)O)C(=O)O)C(=O)N[C@@H](CC(N)=O)C(=O)N[C@@H]([C@@H](C)O)C(=O)N[C@@H](C)C(=O)N[C@@H]([C@@H](C)O)C(=O)N1)[C@@H](C)O)C(C)C)C(=O)N[C@@H](CC(C)C)C(=O)N1CCC[C@H]1C(=O)N1CCC[C@H]1C(=O)N[C@H](C(=O)N[C@@H](CC(N)=O)C(=O)N[C@H](C(=O)NCC(=O)N[C@@H](CO)C(=O)N[C@@H](CC(N)=O)C(=O)N[C@H](C(=O)NC(C)(C)C(N)=O)[C@@H](C)O)C(C)C)[C@@H](C)O
Take B2: in assay [1], the “EC50 (cAMP production)” value was found to be 3.1 nM. In addition, in assay [2], the “EC50 (cAMP production)” value worked out at 0.806 nM and the “Ratio (EC50 hCTR / EC50 hAMYR3)” value came to 4.

B3: Peptide 82 (SEQ ID NO: 82) (peptide)
peptide: K([γGlu-C18 diacid])KCNTATCATQRLANFLVHSS[Aib]NFGPILPPTNVGS[Aib]TY-NH2
modifications: disulfide 3-8; N-terminus assumed
SMILES: CC[C@H](C)[C@H](NC(=O)[C@@H]1CCCN1C(=O)CNC(=O)[C@H](Cc1ccccc1)NC(=O)[C@H](CC(N)=O)NC(=O)C(C)(C)NC(=O)[C@H](CO)NC(=O)[C@H](CO)NC(=O)[C@H](Cc1c[nH]cn1)NC(=O)[C@@H](NC(=O)[C@H](CC(C)C)NC(=O)[C@H](Cc1ccccc1)NC(=O)[C@H](CC(N)=O)NC(=O)[C@H](C)NC(=O)[C@H](CC(C)C)NC(=O)[C@H](CCCNC(=N)N)NC(=O)[C@H](CCC(N)=O)NC(=O)[C@@H](NC(=O)[C@H](C)NC(=O)[C@@H]1CSSC[C@H](NC(=O)[C@H](CCCCN)NC(=O)[C@@H](N)CCCCNC(=O)CC[C@H](NC(=O)CCCCCCCCCCCCCCCCC(=O)O)C(=O)O)C(=O)N[C@@H](CC(N)=O)C(=O)N[C@@H]([C@@H](C)O)C(=O)N[C@@H](C)C(=O)N[C@@H]([C@@H](C)O)C(=O)N1)[C@@H](C)O)C(C)C)C(=O)N[C@@H](CC(C)C)C(=O)N1CCC[C@H]1C(=O)N1CCC[C@H]1C(=O)N[C@H](C(=O)N[C@@H](CC(N)=O)C(=O)N[C@H](C(=O)NCC(=O)N[C@@H](CO)C(=O)NC(C)(C)C(=O)N[C@H](C(=O)N[C@@H](Cc1ccc(O)cc1)C(N)=O)[C@@H](C)O)C(C)C)[C@@H](C)O
As to B3, the “EC50 (cAMP production)” value in assay [1] is 4.28 nM; in assay [2] it was 0.514 nM. The “Ratio (EC50 hCTR / EC50 hAMYR3)” value in assay [2] was found to be 8.

B4: Peptide 83 (SEQ ID NO: 83) (peptide)
peptide: K([γGlu-C18 diacid])KCNTATCATQRLANFLVHSS[Aib]NFGPILPPTNVGSN[Aib]Y-NH2
modifications: disulfide 3-8; N-terminus assumed
SMILES: CC[C@H](C)[C@H](NC(=O)[C@@H]1CCCN1C(=O)CNC(=O)[C@H](Cc1ccccc1)NC(=O)[C@H](CC(N)=O)NC(=O)C(C)(C)NC(=O)[C@H](CO)NC(=O)[C@H](CO)NC(=O)[C@H](Cc1c[nH]cn1)NC(=O)[C@@H](NC(=O)[C@H](CC(C)C)NC(=O)[C@H](Cc1ccccc1)NC(=O)[C@H](CC(N)=O)NC(=O)[C@H](C)NC(=O)[C@H](CC(C)C)NC(=O)[C@H](CCCNC(=N)N)NC(=O)[C@H](CCC(N)=O)NC(=O)[C@@H](NC(=O)[C@H](C)NC(=O)[C@@H]1CSSC[C@H](NC(=O)[C@H](CCCCN)NC(=O)[C@@H](N)CCCCNC(=O)CC[C@H](NC(=O)CCCCCCCCCCCCCCCCC(=O)O)C(=O)O)C(=O)N[C@@H](CC(N)=O)C(=O)N[C@@H]([C@@H](C)O)C(=O)N[C@@H](C)C(=O)N[C@@H]([C@@H](C)O)C(=O)N1)[C@@H](C)O)C(C)C)C(=O)N[C@@H](CC(C)C)C(=O)N1CCC[C@H]1C(=O)N1CCC[C@H]1C(=O)N[C@H](C(=O)N[C@@H](CC(N)=O)C(=O)N[C@H](C(=O)NCC(=O)N[C@@H](CO)C(=O)N[C@@H](CC(N)=O)C(=O)NC(C)(C)C(=O)N[C@@H](Cc1ccc(O)cc1)C(N)=O)C(C)C)[C@@H](C)O
Turning to B4, the “EC50 (cAMP production)” value in assay [1] was found to be 6.34 nM; in assay [2], 0.599 nM. Besides, the “Ratio (EC50 hCTR / EC50 hAMYR3)” value in assay [2] came to 11.

B5: Peptide 86 (SEQ ID NO: 86) (peptide)
peptide: K([γGlu-C18 diacid])KCNTATCATQRLAHFL[Aib]HSS[Aib]NFGPILPPTEVGSNTY-NH2
modifications: disulfide 3-8; N-terminus assumed
SMILES: CC[C@H](C)[C@H](NC(=O)[C@@H]1CCCN1C(=O)CNC(=O)[C@H](Cc1ccccc1)NC(=O)[C@H](CC(N)=O)NC(=O)C(C)(C)NC(=O)[C@H](CO)NC(=O)[C@H](CO)NC(=O)[C@H](Cc1c[nH]cn1)NC(=O)C(C)(C)NC(=O)[C@H](CC(C)C)NC(=O)[C@H](Cc1ccccc1)NC(=O)[C@H](Cc1c[nH]cn1)NC(=O)[C@H](C)NC(=O)[C@H](CC(C)C)NC(=O)[C@H](CCCNC(=N)N)NC(=O)[C@H](CCC(N)=O)NC(=O)[C@@H](NC(=O)[C@H](C)NC(=O)[C@@H]1CSSC[C@H](NC(=O)[C@H](CCCCN)NC(=O)[C@@H](N)CCCCNC(=O)CC[C@H](NC(=O)CCCCCCCCCCCCCCCCC(=O)O)C(=O)O)C(=O)N[C@@H](CC(N)=O)C(=O)N[C@@H]([C@@H](C)O)C(=O)N[C@@H](C)C(=O)N[C@@H]([C@@H](C)O)C(=O)N1)[C@@H](C)O)C(=O)N[C@@H](CC(C)C)C(=O)N1CCC[C@H]1C(=O)N1CCC[C@H]1C(=O)N[C@H](C(=O)N[C@@H](CCC(=O)O)C(=O)N[C@H](C(=O)NCC(=O)N[C@@H](CO)C(=O)N[C@@H](CC(N)=O)C(=O)N[C@H](C(=O)N[C@@H](Cc1ccc(O)cc1)C(N)=O)[C@@H](C)O)C(C)C)[C@@H](C)O
On to B5, for which, in assay [1], the “EC50 (cAMP production)” value amounted to 0.311 nM. Besides, in assay [2], the “EC50 (cAMP production)” value was determined as 0.119 nM and the “Ratio (EC50 hCTR / EC50 hAMYR3)” value was determined as 3.

B6: Peptide 87 (SEQ ID NO: 87) (peptide)
peptide: K([γGlu-C18 diacid])KCNTATCATQRLANFL[Aib]HSS[Aib]NFGPILPPTNVGSNTP-NH2
modifications: disulfide 3-8; N-terminus assumed
SMILES: CC[C@H](C)[C@H](NC(=O)[C@@H]1CCCN1C(=O)CNC(=O)[C@H](Cc1ccccc1)NC(=O)[C@H](CC(N)=O)NC(=O)C(C)(C)NC(=O)[C@H](CO)NC(=O)[C@H](CO)NC(=O)[C@H](Cc1c[nH]cn1)NC(=O)C(C)(C)NC(=O)[C@H](CC(C)C)NC(=O)[C@H](Cc1ccccc1)NC(=O)[C@H](CC(N)=O)NC(=O)[C@H](C)NC(=O)[C@H](CC(C)C)NC(=O)[C@H](CCCNC(=N)N)NC(=O)[C@H](CCC(N)=O)NC(=O)[C@@H](NC(=O)[C@H](C)NC(=O)[C@@H]1CSSC[C@H](NC(=O)[C@H](CCCCN)NC(=O)[C@@H](N)CCCCNC(=O)CC[C@H](NC(=O)CCCCCCCCCCCCCCCCC(=O)O)C(=O)O)C(=O)N[C@@H](CC(N)=O)C(=O)N[C@@H]([C@@H](C)O)C(=O)N[C@@H](C)C(=O)N[C@@H]([C@@H](C)O)C(=O)N1)[C@@H](C)O)C(=O)N[C@@H](CC(C)C)C(=O)N1CCC[C@H]1C(=O)N1CCC[C@H]1C(=O)N[C@H](C(=O)N[C@@H](CC(N)=O)C(=O)N[C@H](C(=O)NCC(=O)N[C@@H](CO)C(=O)N[C@@H](CC(N)=O)C(=O)N[C@H](C(=O)N1CCC[C@H]1C(N)=O)[C@@H](C)O)C(C)C)[C@@H](C)O
Regarding B6, the “EC50 (cAMP production)” value in assay [1] turned out to be 0.074 nM. For the same molecule, in assay [2], the “EC50 (cAMP production)” value was 0.071 nM and the “Ratio (EC50 hCTR / EC50 hAMYR3)” value stood at 1.
